Test: soluble on expression in E. coli; label from the status in PepcDB or PDB records

| Sequence | soluble on expression in E. coli |
| --- | --- |
| MSLSENTTKVVQLNSHLTAPGQVTDELQSLTRMPAAFVETKDKGKQALRPLLQALFDNIDDALFELADRAEHNAEQNMFFESMREVRIKRRGMELCFGQELDNRFRLLLTDDAPRAKSSADDPRLAVDSLSLIANEELEELVAADTMIIKAEGEFTDSLSQLTTRIDTLVHPLEVTDKTNPFGPTSVCQSFVGVCKTLDMDIRAKLVLFKLFDRYVMNGLGDVYAACNEVLVNNGILPGLAKGRTTAARADSNIQQPPAASGTVDVFAQLQTLLHGLPQHTAGIETSGLVAVGQAPQIPRDTLMTLLQSVQLSLAPQLDQQLQAALQGVGPQQLDIQQSLSNLLSAKLPSKPMSIGQVESDALNLVAMLFQFILDDRNLAAPMKALIARLQIPFIKAAMIDSSFFTKGGHPARRLLNEIASASLGWVAIGIVDRDPLYAKVSSIVTRIQREFDGDSRLFQDVLTDFVAFLDMDKRRIGLVEQRTINAEDGKAKSEQARTAVQTALNERVAGLSLPKVVISLLEQAWSNVLFLIYLKEGDQAENWQEGLNVVDDLLWSVQPMDSADSRHRLVTMVPPLLKNVRAGLTKIGYNPFEMNQLFTDLEVVHLSQLQALNTVKLDMTASEGHHHHHH | not soluble |
| MSLSEVLDLDGELNLLVWNIYKQNRANWSTQLTELSRDQQLLLLQEANMTPAFKEWIHQLGWDGTQARAFEAFGETAGVINLAKVMPTMACAYTQLEPWLRLPKSAIYARYRLSDGQELVVVNLHAVNFTYGTQEYQQQLIALLDELRDFTGPVIVAGDFNSWSEARMALLSTQLASVGLQEVRFSPDNRTTFINGLPLDHVFYRGLQLEKAEAPISDASDHNPLLVRFRLLNEGHHHHHH | soluble |
| MSLSGKLTYKELIIEVLKQTKKPLNVSEIWQKALEKGLDKKLSSIGQTPTQTIWNRLLTDKINFLKTSIKPTTFWLKERENELLKLDNKNEITNEKQEKNKFHERDLHPLLVKFLYENLDFNLNCKTIYHEQSKKGKGGEDKWNYPDIVGVYFPYDDYEKETITLLENIKQNSYKLFSFELKIALNFSNLKECYFQAVSNSSWANEGYLVVLQEIDSEVLSELRRLNQSFGIGVIKLEKDISNSQILISAKEKELDIQTLNMLINKNPNFKEFIDDINKQIKVGKEAKIQANFDEIKSDEEMEKYLKEKCILEKEGHHHHHH | soluble |
| MSLSGYAQTTKSEKIDKKLDSIYLKRENYVVSARDKLTIFIFSTRYLNGKLFTNPGIDNYYFPIAPLNIGLGFSHKWLAVNIAILSPKLGKSNYDNSQSKYQNFNLQALAYTPKYGVDIFYSQNLGYFLGNYNGYIDVANAPDKTPYFDMKTNRFTINLLRVFNPVKYSMNATMIGGEMQKNSSSSFIINTSFSLSKFRMSDSIPAFILDQMNQEAIFKGGTFYSISVLPGYGFTWIFSKRFYLGIIPGFGPSFQYKSMTFEDEHENKVAISYRIIAKAGAGFHAKRWTAGISVLYDNERYHLGSKTNIFNNNGKVILKVGYKINVPNWGKGLSKKMSTMQNKFEHTLHNEGHHHHHH | not soluble |
| MSLSHRPVINASVSPKGTLETLSQREVQQLSETANGKTYQLFRQCAPAILNTGAHSDNAKTILDAYKDFEVRIHQQDRGVRLELINAPADAFVDGEMIASTREMLFSALRDIVYTQSGLDSQHVDLDSSQGLTDYVFQLLRNARTLRPGVEPKIVVCWGGHSISSEEYKYTKRVGHELGLRSLDVCTGCGPGVMKGPMKGATISHAKQRIVGGRYLGLTEPGIIAAEAPNPIVNELVILPDIEKRLEAFVRVGHGVIIFPGGAGTAEEFLYLLGILMHPDNQDLPFPVILTGPRSAEAYLQQLHEFVGATLGHAAQRHYRIVIDDPAEVAKQMAQGLKEVKQFRRERNDAFHFNWMLKIDESFQRPFEPTHENMASLQLSRSLPPHELAANLRRAFSGIVAGNVKDNGIRMIEQYGPYEIHGDPAVMLPLDRLLQAFVKQHRMKLPGGAAYVPCYRVVQTEAAEGHHHHHH | soluble |
| MSLSHTLKSKTLQELDIEEIKETNPLLKLVQGQRIVQVPELVLESGVVINNFPIAYKTWGTLNEAGDNVLVICHALTGSADVADWWGPLLGNDLAFDPSRFFIICLNSMGSPYGSFSPLTINEETGVRYGPEFPLCTVRDDVRAHRIVLDSLGVKSIACVIGGSMGGMLSLEWAAMYGKEYVKNMVALATSARHSAWCISWSEAQRQSIYSDPNYLDGYYPVEEQPVAGLSAARMSALLTYRTRNSFENKFSRRSPSIAQQQKAQREETRKPSTVSEHSLQIHNDGYKTKASTAIAGISGQKGQSVVSTASSSDSLNSSTSMTSVSSVTGEVKDIKPAQTYFSAQSYLRYQGTKFINRFDANCYIAITRKLDTHDLARDRVDDITEVLSTIQQPSLIIGIQSDGLFTYSEQEFLAEHIPKSQLEKIESPEGHDAFLLEFKLINKLIVQFLKTNCKAITDAAPRAWGGDVGNDETKTSVFGEAEEVTNWEGHHHHHH | soluble |
| MSLSIPERKEFTKLYDVYDEITSKYYKDTNSTTMIDGAISGMVNSLDDPYSTFMSKKESSEFNDTISASFEGIGAEIQEKDGAIVIVSPIKNSPAEKAGLRPQDIITQVDGKSVKGDTATEATQKIRGEKGTKVTLTIQRSNEDKPFDVTITRDEIPIETVYKEMGSDKIAHVTISTFSETTYDELEKALKSLEKDGMKGLVLDLRGNPGGLLDQAVSISSLFVPDGKIVVQEQDKDGDKSAIKADSSSHGDYKVKVPTTMLIDGGSASASEILAAAAKESGGIKLVGTKSFGKGTVQTATTLSDDSTLKLTVAKWLTPNSEWIHEKGITPDVVVNMPDYATMTIPSSTKVYKNGDFGDDVKTIETLLKALDYNVGKVDGLYDTDTEYAVQRFQTANKLDVTGIMTGVTTDKLVELTQKHLKETDPQLQKAKALVKEGHHHHHH | soluble |
| MSLSITSDLIATANSGIWTDSEMLECCAVVPEAPDTVTISFVSPSGNLFKYEPGQFLTLELPVPGGPLYRTYTISSSPSRPLSLSITVKAQPGSIGTRWMLEKLMPGMRVKAIGPAGQFTLDTTARKKKYLFISAGSGVTPTLAMTTYLYDRGTDIDVSIINCARRPGEIIGRRSLAAMASRVPSIKLTFIVEEDDPFQVWTGLRGRLNQIMIGIVAGDYLERDIYCCGPEPFMDAVREMLIGLGYDMSRYSQESFSAPAETAEDVPDLDDVTPDESVAAQITFVSSKVTAGCTETDTVLAVARGAGLNIPSGCTFGVCGTCKIRKTKGEVHMVHNGGISEDDIADGYILACCSKPVGQVEVDIEGHHHHHH | soluble |
| MSLSKLDIPLSIMQKSVVIRPGGRQEMDEHVAIETPYAIALNDRVIGSSMVLPVDLEEFGAGFLFGQGYIKKAEEIREILVCPQGRISVYADVENEEPREVIITSGCGGTGKIPKEMLEGEFAPLADYCLPFAEIKSFIREALHSSPLGPQTHCVHGCGLWNNGRLQVYHEDVGRHNAVDKVLGSILLGRASNNSAVYTTGRLTSDMVLKCARIGIPIIMSRTSPSSLGLALAKRSGATLVAYSRPERINVFNAPERILTEGHHHHHH | soluble |
| MSLSLRVRQIDRREWLLAQTATECQRHGREATLEYPTRQGMWVRLSDAEKRWSAWIKPGDWLEHVSPALAGAAVSAGAEHLVVPWLAATERPFELPVPHLSCRRLCVENPVPGSALPEGKLLHIMSDRGGLWFEHLPELPAVGGGRPKMLRWPLRFVIGSSDTQRSLLGRIGIGDVLLIRTSRAEVYCYAKKLGHFNRVEGGIIVETLDIQHIEEENNTTETAETLPGLNQLPVKLEFVLYRKNVTLAELEAMGQQQLLSLPTNAELNVEIMANGVLLGNGELVQMNDTLGVEIHEWLSESGNGEEGHHHHHH | soluble |
| MSLSNDTVSGPSMQPSFENGQRLISVRHAQIKRGEVVIVKAPDEPGALYIKRVIGMPGEKIVSKNNQIYINNKKLSQPWLTQGKKMIDAGSDTFYSATQNFTMKSLARSRQFQQYYTKSQLNYINKYNRIPKETYFVMGDHRSVSKDSRYIGTIKRKNVVGVVKLRYWPLNEFKIYEGHHHHHH | not soluble |
| MSLSQFKPTWMVKNIYDLTPAQLRANGIKVILTDLDNTLIAWNNPDGTPELRHWLTLLELAGIRVIVVSNNNRKRVDRAVAPFNLDYIHRALKPLSWGILRALRRWHLNRDEVVMVGDQLLTDVWAAHHSGVRSVLVKPILKSDAWVTKGNRLMEKVVMWRLRHNYPELTWQEDLDERKAHEGHHHHHH | soluble |
| MSLSQPIYKRILLKLSGEALQGEDGLGIDPAILDRMAVEIKELVEMGVEVSVVLGGGNLFRGAKLAKAGMNRVVGDHMGMLATVMNGLAMRDSLFRADVNAKLMSAFQLNGICDTYNWSEAIKMLREKRVVIFSAGTGNPFFTTDSTACLRGIEIEADVVLKATKVDGVYDCDPAKNPDAKLYKNLSYAEVIDKELKVMDLSAFTLARDHGMPIRVFNMGKPGALRQVVTGTEEGTTICEGHHHHHH | soluble |
| MSLSQYAEMSLVYDQLTQDQPYEKWFEIVKNHCKDESNILDIGCGTGSLTVQLEALGNVTGMDLSVDMLTVAAQKSANVNWLEGDMTSFDLQQQFDIITIFCDSLNYLQDETAVIETFINVYHHLTDSGVFIFDVHTVYKMMTLFNNQSYIDDKGDIFLAWDAVQGDLPLSVYHDMTFFIRHEDETYSRFDESHFQRTFDEKTYLSWLAQVGFKHVETFTDFNIDEHNEDTERLFFIAKKEGHHHHHH | soluble |
| MSLSSANGGHVDQSDHLALLPPNVRKKGRPTLVLDLDATLFYTSAELLNTPLDYFDMGEESTYRYLYLRPYALDFLGWASTVFEVIIWTAAMESYAEPRIRATEIDRYADVVLYRGACDMIDGSLVKNLAKLGRPLSDMIIVDDNPVSYALNVELAYPIPPFSGEEDDLELLRLVPILRKVLELSSLKRGIYKTIFSEGHHHHHH | soluble |
| MSLSSARFDSSDRSAWYMGPVSRQEAQTRLQGQRHGMFLVRDSSTCPGDYVLSVSENSRVSHYIINSLPNRRFKIGDQEFDHLPALLEFYKIHYLDTTTLIEPAPRYPSPPMGSVSAPNLPTAEDNLEYVRTLYDFPGNDAEDLPFKKGEILVIIEKPEEQWWSARNKDGRVGMIPVPYVEKLVRSSPHGKHGNRNSNSYGIPEPAHAYAQPQTTTPLPAVSGSPGAAITPLPSTQNGPVFAKAIQKRVPCAYDKTALALEVGDIVKVTRMNINGQWEGEVNGRKGLFPFTHVKIFDPQNPDENEGHHHHHH | soluble |
| MSLSSMLPSISPELARIAPGFRALSINVIAAPVRDAQVGEIALKEACQAVINGQPAWAQAHIDAWNAVFKAFGAKPKRTPCSAEALRKRVLKDGTMAALDPVVDLYNAVSLRYAVPVGGENSAAYCGSPRLVFADGSETFDTLKEGKPVTESPEPGEVIWRDDRGVTCRRWNWRQGVRTRLSASDKMMWFILESLPEMPVDELYAAENMLTDGLEKMMPGLRFESTLIGVEGHHHHHH | not soluble |
| MSLSSRNSTPLRQFGYEFFMTPLDVSKLVLPVSENYKLGPGDEVIIYIVGLPSNQEIPPVIKTIVDREGNISIPNLGVFNVWGLTLKETEELLRQELGLDLKVTVGEIRTFVIYVAGEVNRPGTHVATAVNTVIDALSIAGGVKKTGSLRNIILTRKTPSGLKTYNIDLYDVFIKGKPIDLTLRDGDTILVKPIGPTVAIAGEVKRPAIYEIKGGETIKDLIELAGGLLPSSYQYKVILQRYENGKLRIIEDSLTNKAFMNENLRDGDLVLIKKSADIPENSYSIEGYVTLPGVYEYKEGLKLSDILNPDLFFKDTNLKFAVLVRQYPKGSIPKYIAFSPEKVLTGKEDMELKPYDRLIFFKLGQSEGHHHHHH | soluble |
| MSLSSRYTPSEMAQALGAGLLSFPVTHFDADMAFDEPAYRSNLDWLSSHPAAGLFAAGGTGELFSLTLDEVDRAVRAAVTQTAGRMPVIAPAGYGTAIAVAMAQAAERNDADGILLFPPYLTECDADGVAEHVERVCKATSLGVIVYGRANARLDDVALARVAERCPNLVGYKDGIGDVERMTRIYARLGDRLLYVGGLPTAETFALPYLEMGVTTYSSAIFNFLPEWALSFYAAVRARDHATIYRELNDFVLPYTVLRNRRAGYAVSIVKAGMRAVGRPAGPVRTPLADLTEDEFAQLTQLIGGRREGHHHHHH | not soluble |
